Measured values: patent publication US20230133141A1 (HONG KONG POLYTECHNIC UNIVERSITY, published 2023)
Non-standard residues stand in square brackets, D forms with d.

T1: full-length ITGA2 (UniProt P17301 30-1181, limits assumed)
T1 sequence (looked up): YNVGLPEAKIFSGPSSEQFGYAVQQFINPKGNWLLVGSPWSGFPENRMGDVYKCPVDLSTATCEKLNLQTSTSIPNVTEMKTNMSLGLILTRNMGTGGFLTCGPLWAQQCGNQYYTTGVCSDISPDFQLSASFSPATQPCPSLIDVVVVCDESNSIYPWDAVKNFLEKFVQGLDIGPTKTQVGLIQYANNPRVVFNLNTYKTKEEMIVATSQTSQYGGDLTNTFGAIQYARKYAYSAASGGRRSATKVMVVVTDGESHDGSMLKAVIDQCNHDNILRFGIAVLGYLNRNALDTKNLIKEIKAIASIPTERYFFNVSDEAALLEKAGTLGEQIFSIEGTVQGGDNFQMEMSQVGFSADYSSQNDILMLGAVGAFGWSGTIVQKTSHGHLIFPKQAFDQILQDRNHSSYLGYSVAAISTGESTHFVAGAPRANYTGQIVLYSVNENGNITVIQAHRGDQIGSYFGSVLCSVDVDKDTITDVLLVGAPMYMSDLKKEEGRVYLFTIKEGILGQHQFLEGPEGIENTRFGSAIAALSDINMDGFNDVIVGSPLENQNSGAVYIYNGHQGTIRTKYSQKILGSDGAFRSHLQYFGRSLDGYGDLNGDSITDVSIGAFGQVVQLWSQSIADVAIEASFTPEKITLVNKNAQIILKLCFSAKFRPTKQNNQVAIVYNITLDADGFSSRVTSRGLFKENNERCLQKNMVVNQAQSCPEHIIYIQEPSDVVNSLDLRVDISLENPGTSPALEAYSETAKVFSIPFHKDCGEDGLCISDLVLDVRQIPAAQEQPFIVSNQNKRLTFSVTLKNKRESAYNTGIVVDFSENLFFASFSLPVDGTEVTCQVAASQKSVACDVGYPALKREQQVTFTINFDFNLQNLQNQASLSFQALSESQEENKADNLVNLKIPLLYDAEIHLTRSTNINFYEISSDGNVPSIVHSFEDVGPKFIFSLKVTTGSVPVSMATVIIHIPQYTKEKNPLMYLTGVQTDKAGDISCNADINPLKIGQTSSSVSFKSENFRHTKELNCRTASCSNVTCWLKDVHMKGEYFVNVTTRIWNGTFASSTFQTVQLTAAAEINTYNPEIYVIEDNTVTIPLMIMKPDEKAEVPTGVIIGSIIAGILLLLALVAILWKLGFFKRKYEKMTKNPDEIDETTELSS

T2: KLGFFKR motif-deficient (dm) ITGA2 (UniProt P17301 30-1181)
T2 construct: whole, on cells; Deletion of the seven residues KLGFFKR; also called A2dm; motif-deficient ITGA2
T2 sequence (looked up): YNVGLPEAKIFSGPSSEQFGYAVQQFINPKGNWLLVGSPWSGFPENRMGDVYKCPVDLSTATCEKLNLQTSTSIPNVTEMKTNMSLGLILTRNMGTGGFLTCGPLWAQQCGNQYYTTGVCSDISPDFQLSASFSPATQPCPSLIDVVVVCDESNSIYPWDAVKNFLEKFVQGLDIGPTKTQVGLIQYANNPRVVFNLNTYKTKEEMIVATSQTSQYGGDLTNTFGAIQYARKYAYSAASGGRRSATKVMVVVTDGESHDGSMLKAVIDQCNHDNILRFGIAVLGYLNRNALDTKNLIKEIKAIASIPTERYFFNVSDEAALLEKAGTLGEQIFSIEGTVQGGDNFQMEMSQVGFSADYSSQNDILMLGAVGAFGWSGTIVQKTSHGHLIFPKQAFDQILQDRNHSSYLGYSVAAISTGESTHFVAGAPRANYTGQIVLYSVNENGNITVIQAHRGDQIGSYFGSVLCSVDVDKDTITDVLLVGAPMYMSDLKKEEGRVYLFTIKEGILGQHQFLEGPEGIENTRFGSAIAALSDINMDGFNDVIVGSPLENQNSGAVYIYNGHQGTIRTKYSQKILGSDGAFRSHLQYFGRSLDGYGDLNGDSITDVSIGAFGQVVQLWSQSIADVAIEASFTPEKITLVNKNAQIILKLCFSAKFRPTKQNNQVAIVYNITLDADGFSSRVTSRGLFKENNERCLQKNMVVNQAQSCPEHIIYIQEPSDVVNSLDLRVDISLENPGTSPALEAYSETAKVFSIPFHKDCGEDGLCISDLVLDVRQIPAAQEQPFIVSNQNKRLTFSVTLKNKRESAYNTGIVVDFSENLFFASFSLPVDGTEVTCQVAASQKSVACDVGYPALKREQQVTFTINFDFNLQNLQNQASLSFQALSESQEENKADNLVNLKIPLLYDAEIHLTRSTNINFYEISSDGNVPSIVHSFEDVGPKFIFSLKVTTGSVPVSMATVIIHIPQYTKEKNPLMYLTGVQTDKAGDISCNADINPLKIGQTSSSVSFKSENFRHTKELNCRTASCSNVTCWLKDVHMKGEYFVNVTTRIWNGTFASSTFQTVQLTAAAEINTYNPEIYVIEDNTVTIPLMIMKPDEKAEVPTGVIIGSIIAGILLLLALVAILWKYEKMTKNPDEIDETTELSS


Experiments:
full-length ITGA2 [1] = target: T1, full-length ITGA2; experiment: cell-based or functional assay
[2] = target: T2, KLGFFKR motif-deficient (dm) ITGA2; experiment: co-immunoprecipitation with anti-CRT antibody, Western blot
Description: (§1) After incubation, agarose beads were centrifuged and washed by PBS. Immunoprecipitated proteins were collected by treating the beads with 0.2 M glycine and subjected to Western Blotting (WB) analysis.
(§2) Total protein was extracted with RIPA buffer supplied with protease inhibitor (Roche), resolved in 10% SDS-PAGE and transferred onto Immobilon-P PVDF membrane (Millipore). Membranes were blocked with 5% non-fat dry milk in Tris-buffered saline with 0.1% Tween (TBST) for 2 hours, then were incubated overnight with corresponding antibodies at 4° C., followed by incubation with horseradish peroxidase-conjugated goat anti-mouse IgG (Santa Cruz Biotechnology) or goat anti-rabbit IgG (Santa Cruz Biotechnology) as appropriate, for 2 hours at room temperature in TBST. Antibody binding was detected with Pierce ECL Western Blotting Substrate (Thermo Scientific) and images were visualized with Azure C600 imaging system (Azure Biosystems).

full-length ITGA2 [3] = target: T1, full-length ITGA2; experiment: co-immunoprecipitation with anti-CRT antibody from cell lysate, Western blot
Description: as §1, §2

| Binder | EC50 of reversing chemoresistance in BCSCs in the presence of DOX (MTS assay) (full-length ITGA2 [1]) [µM] | binding result [2] | binding result (full-length ITGA2 [3]) |
| --- | --- | --- | --- |
| Ac-[dR][dE][dP][dV][dC][dL][dC][dR]G[dI][dV][dW][dR][dQ][dV][dA][dP][dP][dF]G[dL][dE][dS][dR][dR][dR][dQ][dR][dR][dK][dK][dR]-NH2 (cysteine pairing not given here) [DRI-TAT-SP peptide (D-retro-inverso form of TAT-SP)] | 2.3 |  |  |
| calreticulin (CRT) (other, UniProt P27797 18-417, looked up, Endogenous protein in cell lysate; pulled down with anti-CRT antibody) EPAVYFKEQFLDGDGWTSRWIESKHKSDFGKFVLSSGKFYGDEEKDKGLQTSQDARFYALSASFEPFSNKGQTLVVQFTVKHEQNIDCGGGYVKLFPNSLDQTDMHGDSEYNIMFGPDICGPGTKKVHVIFNYKGKNVLINKDIRCKDDEFTHLYTLIVRPDNTYEVKIDNSQVESGSLEDDWDFLPPKKIKDPDASKPEDWDERAKIDDPTDSKPEDWDKPEHIPDPDAKKPEDWDEEMDGEWEPPVIQNPEYKGEWKPRQIDNPDYKGTWIHPEIDNPEYSPDPSIYAYDNFGVLGLDLWQVKSGTIFDNFLITNDEAYAEEFGNETWGVTKAAEKQMKDKQDEEQRLKEEEEDKKRKEEEEAEDKEDDEDKDEDEEDEEDKEEDEEEDVPGQAKDEL |  | no binding | binds |
